Experimental data: the supplement of paper PMC11246515
± gives the standard deviation of the averaged measurements.

Test: total protein half-life in vivo (active degradation + dilution); higher = more stable protein
[1] = E. coli NCM3722 delta-clpP delta-lon delta-hslV, growth: N-lim chemostat, doubling time 6 h
[2] = E. coli NCM3722 delta-clpP, growth: N-lim chemostat, doubling time 6 h
[3] = E. coli NCM3722 delta-hslV, growth: N-lim chemostat, doubling time 6 h
[4] = E. coli NCM3722 delta-lon, growth: N-lim chemostat, doubling time 6 h
[5] = E. coli NCM3722 delta-smpB, growth: N-lim chemostat, doubling time 6 h
[6] = wild type E. coli NCM3722, growth: C-lim chemostat, doubling time 3 h
[7] = wild type E. coli NCM3722, growth: C-lim chemostat, doubling time 6 h
[8] = wild type E. coli NCM3722, growth: C-lim chemostat, doubling time 12 h
[9] = wild type E. coli NCM3722, growth: N-lim chemostat, doubling time 6 h
[10] = wild type E. coli NCM3722, growth: N-lim chemostat, doubling time 12 h
[11] = wild type E. coli NCM3722, growth: P-lim chemostat, doubling time 6 h
[12] = wild type E. coli NCM3722, growth: P-lim chemostat, doubling time 12 h

| Sequence | total protein half-life in vivo [1] [h] | total protein half-life in vivo [2] [h] | total protein half-life in vivo [3] [h] | total protein half-life in vivo [4] [h] | total protein half-life in vivo [5] [h] | total protein half-life in vivo [6] [h] | total protein half-life in vivo [7] [h] | total protein half-life in vivo [8] [h] | total protein half-life in vivo [9] [h] | total protein half-life in vivo [10] [h] | total protein half-life in vivo [11] [h] | total protein half-life in vivo [12] [h] |
| --- | --- | --- | --- | --- | --- | --- | --- | --- | --- | --- | --- | --- |
| MKKVAIVGLGWLGMPLAMSLSARGWQVTGSKTTQDGVEAARMSGIDSYLLRMEPELVCDSDDLDALMDADALVITLPARRSGPGDEFYLQAVQELVDSALAHRIPRIIFTSSTSVYGDAQGTVKETTPRNPVTNSGRVLEELEDWLHNLPGTSVDILRLAGLVGPGRHPGRFFAGKTAPDGEHGVNLVHLEDVIGAITLLLQAPKGGHIYNICAPAHPARNVFYPQMARLLGLEPPQFRNSLDSGKGKIIDGSRICNELGFEYQYPDPLVMPLE [P0AD12] | 4.79 ± 0.29 | 4.52 ± 0.45 | 4.63 ± 0.4 | 5.07 ± 0.57 | 4.5 ± 0.096 | 3.06 ± 0.16 | 5.019 ± 0.0077 | 8.76 ± 1.2 | 4.35 ± 0.44 | 7.41 ± 0.52 | 5.61 ± 0.32 | 11.1 ± 0.28 |
| MKKVLIAALIAGFSLSATAAETIRFATEASYPPFESIDANNQIVGFDVDLAQALCKEIDATCTFSNQAFDSLIPSLKFRRVEAVMAGMDITPEREKQVLFTTPYYDNSALFVGQQGKYTSVDQLKGKKVGVQNGTTHQKFIMDKHPEITTVPYDSYQNAKLDLQNGRIDGVFGDTAVVTEWLKDNPKLAAVGDKVTDKDYFGTGLGIAVRQGNTELQQKLNTALEKVKKDGTYETIYNKWFQK | 5.31 ± 0.27 | 5.44 ± 0.31 | 6.55 ± 0.075 | 7.11 ± 0.09 | 6.01 ± 0.43 | 3.16 ± 0.44 | 5.9 ± 0.34 | 11.55 ± 0.079 | 5.64 ± 0.36 | 12.2 ± 0.92 | 6.04 ± 0.31 | 12.2 ± 0.73 |
| MKKVLLIILLLLVVLGIAAGVGVWKVRHLADSKLLIKEETIFTLKPGTGRLALGEQLYADKIINRPRVFQWLLRIEPDLSHFKAGTYRFTPQMTVREMLKLLESGKEAQFPLRLVEGMRLSDYLKQLREAPYIKHTLSDDKYATVAQALELENPEWIEGWFWPDTWMYTANTTDVALLKRAHKKMVKAVDSAWEGRADGLPYKDKNQLVTMASIIEKETAVASERDKVASVFINRLRIGMRLQTDPTVIYGMGERYNGKLSRADLETPTAYNTYTITGLPPGAIATPGADSLKAAAHPAKTPYLYFVADGKGGHTFNTNLASHNKSVQDYLKVLKEKNAQ | 6.33 ± 0.68 | 6.52 ± 1.1 | 6.8 ± 0.6 | 6.58 ± 0.69 | 6.22 ± 0.74 | 3.49 ± 0.33 | 6.65 ± 0.64 | 12.7 ± 1.6 | 6.34 ± 0.68 | 12.4 ± 1.7 | 6 ± 0.25 | 12 ± 0.45 |
| MKKVTAMLFSMAVGLNAVSMAAKAKASEEQETDVLLIGGGIMSATLGTYLRELEPEWSMTMVERLEGVAQESSNGWNNAGTGHSALMELNYTPQNADGSISIEKAVAINEAFQISRQFWAHQVERGVLRTPRSFINTVPHMSFVWGEDNVNFLRARYAALQQSSLFRGMRYSEDHAQIKEWAPLVMEGRDPQQKVAATRTEIGTDVNYGEITRQLIASLQKKSNFSLQLSSEVRALKRNDDNTWTVTVADLKNGTAQNIRAKFVFIGAGGAALKLLQESGIPEAKDYAGFPVGGQFLVSENPDVVNHHLAKVYGKASVGAPPMSVPHIDTRVLDGKRVVLFGPFATFSTKFLKNGSLWDLMSSTTTSNVMPMMHVGLDNFDLVKYLVSQVMLSEEDRFEALKEYYPQAKKEDWRLWQAGQRVQIIKRDAEKGGVLRLGTEVVSDQQGTIAALLGASPGASTAAPIMLNLLEKVFGDRVSSPQWQATLKAIVPSYGRKLNGDVAATERELQYTSEVLGLNYDKPQAADSTPKPQLKPQPVQKEVADIAL | 3.81 ± 0.31 | 2.29 ± 0.29 | 1.1 ± 0.013 | 0.95 | 1.15 ± 0.2 | – | – | – | 1.19 ± 0.58 | 1.46 ± 0.27 | – | – |
| MKKVVTVCPYCASGCKINLVVDNGKIVRAEAAQGKTNQGTLCLKGYYGWDFINDTQILTPRLKTPMIRRQRGGKLEPVSWDEALNYVAERLSAIKEKYGPDAIQTTGSSRGTGNETNYVMQKFARAVIGTNNVDCCARVUHGPSVAGLHQSVGNGAMSNAINEIDNTDLVFVFGYNPADSHPIVANHVINAKRNGAKIIVCDPRKIETARIADMHIALKNGSNIALLNAMGHVIIEENLYDKAFVASRTEGFEEYRKIVEGYTPESVEDITGVSASEIRQAARMYAQAKSAAILWGMGVTQFYQGVETVRSLTSLAMLTGNLGKPHAGVNPVRGQNNVQGACDMGALPDTYPGYQYVKDPANREKFAKAWGVESLPAHTGYRISELPHRAAHGEVRAAYIMGEDPLQTDAELSAVRKAFEDLELVIVQDIFMTKTASAADVILPSTSWGEHEGVFTAADRGFQRFFKAVEPKWDLKTDWQIISEIATRMGYPMHYNNTQEIWDELRHLCPDFYGATYEKMGELGFIQWPCRDTSDADQGTSYLFKEKFDTPNGLAQFFTCDWVAPIDKLTDEYPMVLSTVREVGHYSCRSMTGNCAALAALADEPGYAQINTEDAKRLGIEDEALVWVHSRKGKIITRAQVSDRPNKGAIYMTYQWWIGACNELVTENLSPITKTPEYKYCAVRVEPIADQRAAEQYVIDEYNKLKTRLREAALA | 4.17 ± 0.28 | – | – | – | – | – | – | – | – | – | – | – |
| MKKYQQLAEQLREQIASGIWQPGDRLPSLRDQVALSGMSFMTVSHAYQLLESQGYIIARPQSGYYVAPQAIKMPKAPVIPVTRDEAVDINTYIFDMLQASRDPSVVPFASAFPDPRLFPLQQLNRSLAQVSKTATAMSVIENLPPGNAELRQAIARRYALQGITISPDEIVITAGALEALNLSLQAVTEPGDWVIVENPCFYGALQALERLRLKALSVATDVKEGIDLQALELALQEYPVKACWLMTNSQNPLGFTLTPQKKAQLVALLNQYNVTLIEDDVYSELYFGREKPLPAKAWDRHDGVLHCSSFSKCLVPGFRIGWVAAGKHARKIQRLQLMSTLSTSSPMQLALVDYLSTRRYDAHLRRLRRQLAERKQRAWQALLRYLPAEVKIHHNDSGYFLWLELPEPLDAGELSLAALTHHISIAPGKMFSTGENWSRFFRFNTAWQWGEREEQAVKQLGKLIQERL | 5.76 ± 0.15 | 6.15 ± 0.15 | 6.01 ± 0.29 | 6.09 ± 0.51 | 5.54 ± 0.38 | 3.02 ± 0.075 | 5.42 ± 0.59 | 10.5 ± 0.68 | 5.45 ± 0.55 | 13.1 ± 2.8 | 6.52 ± 0.27 | 14.3 ± 2.1 |
| MKLAVYSTKQYDKKYLQQVNESFGFELEFFDFLLTEKTAKTANGCEAVCIFVNDDGSRPVLEELKKHGVKYIALRCAGFNNVDLDAAKELGLKVVRVPAYDPEAVAEHAIGMMMTLNRRIHRAYQRTRDANFSLEGLTGFTMYGKTAGVIGTGKIGVAMLRILKGFGMRLLAFDPYPSAAALELGVEYVDLPTLFSESDVISLHCPLTPENYHLLNEAAFEQMKNGVMIVNTSRGALIDSQAAIEALKNQKIGSLGMDVYENERDLFFEDKSNDVIQDDVFRRLSACHNVLFTGHQAFLTAEALTSISQTTLQNLSNLEKGETCPNELV | 4.95 ± 0.5 | 5.65 ± 1.9 | 4.53 ± 0.051 | 5.26 ± 0.41 | 4.57 ± 0.16 | 3.08 ± 0.3 | 5.97 ± 0.49 | 11.3 ± 0.19 | 4.64 ± 0.38 | 7.53 ± 0.61 | 5.67 ± 0.38 | 12.3 ± 0.16 |
